FireProtDB (doi:10.1021/bi0525223)

Settings: Lithobates pipiens, pH 5.5, sodium acetate 100 mM, reversible: Yes, whole UniProt chain shown

B1: Protein P-30 wild type, P22069 (protein)
chain: QDWLTFQKKHITNTRDVDCDNIMSTNLFHCKDKNTFIYSRPEPVKAICKGIIASKNVLTTSEFYLSDCNVTSRPCKYKLKKSTNKFCVTCENQAPVHFVGVGSC
20 °C, GdnHCl, Fluorescence
  denaturant midpoint (higher = more stable): 4.4 M
Thermal, DSC
  Tm: 88.5 °C
